Substitutions are numbered along the chain they refer to. Values belong to the binder of their own block, whether it stands above or below them.
Assays:
biotin-labeled mouse ADM [1] = biological target: T1, biotin-labeled mouse ADM (mouse, not fully specified; biotin label (named mouse ADM-C-biotin in Example 1.4; position of the biotin not stated for the other lots)); assay: BLI (Octet RED96e), as in Example 3
T1 construct: Synthetic peptide; also called mouse ADM-C-biotin; mADM-Biotin
T1 peptide: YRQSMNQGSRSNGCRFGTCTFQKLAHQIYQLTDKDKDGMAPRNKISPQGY
Experimental: (§1) The affinity of antibodies 2004hz00, 2004hz97, and 2004hz99 for biotin-labeled human and mouse ADM (human ADM Cat. No. 894757, mouse ADM Cat. No. 894758, synthesized by GLBiochem) was determined by adopting Octet RED96e (Fortebio). The antigens and the antibodies were all diluted with 1× PBST (1× PBS: Sangon, B548117-0500; 0.02% Tween 20: sigma, P1379), the concentration of the antibody used was 100 nM, and the concentration of the antigen used was 2 μg/mL. The candidate antibody sample was added to a 96-well plate (Greiner bio-one, 655209) at 200 μL/well, the software parameters were set, the temperature was 30° C., and the standard kinetic signal was collected at a frequency of 5.0 Hz; and an SA sensor (Fortebio, Cat. No. 18-5020) was pre-wetted with 1× PBST for 10 min and then tested on a machine.
(§2) The equilibrium dissociation constants (KD) of the antibodies were calculated by measuring the association rates (Kon) and the dissociation rates (Koff) of the antigen-antibody in a 1:1 binding manner by adopting the Data Analysis 12.0 software from Fortebio.
(§3) Similar to Example 3, the affinity of the affinity-matured antibodies Ab2004.Am31 -Ab2004.Am40 and the parent antibody Ab2004.Am01 for human and mouse ADM was further determined, respectively, and the results are shown in Table 10. It can be seen from Table 10 […].

biotin-labeled human ADM [2] = biological target: T2, biotin-labeled human ADM (human, not fully specified; biotin label (named human ADM-C-biotin in Example 1.4; position of the biotin not stated for the other lots)); assay: BLI (Octet RED96e), as in Example 3
T2 construct: Synthetic peptide; also called human ADM-C-biotin; hADM-Biotin
T2 peptide: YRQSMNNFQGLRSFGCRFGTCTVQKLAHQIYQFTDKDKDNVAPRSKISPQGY
Experimental: as §1, §2, §3

biotin-labeled mouse ADM [3] = biological target: T1, biotin-labeled mouse ADM; assay: flow staining of yeast-displayed Fab at graded antigen concentrations
Text: (§4) For the first round of screening products of JYYDL227, 46 monoclones were picked for sequencing, and finally, a yeast monoclonal colony with a unique sequence was obtained for EC₅₀ identification by flow staining.
(§5) According to the staining results of the clones (as shown in Table 6) in combination with the similarity of the sequences of the clones, the monoclones expressing antibodies Ab2004.Am31 (with amino acid sequences of variable regions set forth in SEQ ID NOs: 31 and 36), Ab2004.Am32 (with amino acid sequences of variable regions set forth in SEQ ID NOs: 31 and 37), Ab2004.Am33 (with amino acid sequences of variable regions set forth in SEQ ID NOs: 32 and 36), Ab2004.Am34 (with amino acid sequences of variable regions set forth in SEQ ID NOs: 33 and 38), Ab2004.Am35 (with amino acid sequences of variable regions set forth in SEQ ID NOs: 31 and 38), Ab2004.Am36 (with amino acid sequences of variable regions set forth in SEQ ID NOs: 31 and 39), Ab2004.Am37 (with amino acid sequences of variable regions set forth in SEQ ID NOs: 34 and 38), Ab2004.Am38 (with amino acid sequences of variable regions set forth in SEQ ID NOs: 34 and 40), Ab2004.Am39 (with amino acid sequences of variable regions set forth in SEQ ID NOs: 33 and 41), and Ab2004.Am40 (with amino acid sequences of variable regions set forth in SEQ ID NOs: 31 and 42) were finally selected. The amino acid sequences of the Chothia-numbered CDRs of the candidate antibodies are shown in Table 7, and the amino acid sequences of the light and heavy chain variable regions of the candidate antibodies are shown in Table 8.

biotin-labeled human ADM [4] = biological target: T2, biotin-labeled human ADM; assay: as above
Text: as §4, §5

Kd (biotin-labeled mouse ADM [1]): 2.21 nM | Response value (biotin-labeled mouse ADM [1]): 2.35 | koff (biotin-labeled mouse ADM [1]): 0.000956 s⁻¹ | kon (biotin-labeled mouse ADM [1]): 434000 M⁻¹ s⁻¹ | Kd (biotin-labeled human ADM [2]): 0.766 nM | Response value (biotin-labeled human ADM [2]): 2.34 | koff (biotin-labeled human ADM [2]): 0.000233 s⁻¹ | kon (biotin-labeled human ADM [2]): 305000 M⁻¹ s⁻¹
B1: fully human antibody Ab2004.Am01 (expressed antibody) (antibody, V domains shown)
VH: QVQLVQSGAEVKKPGASVKVSCKASGYTFTSYGISWVRQAPGQGLEWMGWISAYQGNTNYAQKLQGRVTMTRDTSTSTAYMELRSLRSDDTAVYYCAREGRWGGSFNIWGQGTMVTVSS
VL: DIQMTQSPSSLSASVGDRVTITCRASQGISSYLAWYQQKPGKAPKLLIYDASNLETGVPSRFSGSGSGTDFTFTISSLQPEDIATYYCQQYDNLPLTFGGGTKVEIK
notes: also called parent antibody Ab2004.Am01

Kd (biotin-labeled mouse ADM [1]): 0.489 nM | Response value (biotin-labeled mouse ADM [1]): 2.7 | koff (biotin-labeled mouse ADM [1]): 0.000266 s⁻¹ | kon (biotin-labeled mouse ADM [1]): 543000 M⁻¹ s⁻¹ | Kd (biotin-labeled human ADM [2]): 0.178 nM | Response value (biotin-labeled human ADM [2]): 2.57 | koff (biotin-labeled human ADM [2]): 8.33e-05 s⁻¹ | kon (biotin-labeled human ADM [2]): 468000 M⁻¹ s⁻¹
B2: Ab2004.Am39 (IgG1 antibody) (antibody, V domains shown)
VH: B1 VH with S31H, S35A
VL: DIQMTQSPSSLSASVGDRVTITCRASQGISSYLAWYQQKPGKAPKLLIYDASNLETGVPSRFSGSGSGTDFTFTISSLQPEDIATYYCQQYDDLDLTFGGGTKVEIKR
notes: Expressed in CHO cells, human IgG1/kappa

EC50 (biotin-labeled mouse ADM [3]): 14.3 nM | EC50 (biotin-labeled human ADM [4]): 0.74 nM
B3: Ab2004.Am38 (Fab displayed on yeast) (Fab, V domains shown)
VH: B1 VH with A53P, Q55T, N57K
VL: B1 VL with A51T, N53D, E55D
notes: Yeast monoclonal colony of library JYYDL227 (Fab display)

EC50 (biotin-labeled mouse ADM [3]): 1.66 nM | EC50 (biotin-labeled human ADM [4]): 0.45 nM
B4: Ab2004.Am31 (Fab displayed on yeast) (Fab, V domains shown)
VH: B1 VH with S31Q, S35A
VL: B1 VL with Q27E, S31E
notes: as for B3

Kd (biotin-labeled mouse ADM [1]): 0.492 nM | Response value (biotin-labeled mouse ADM [1]): 2.65 | koff (biotin-labeled mouse ADM [1]): 0.000253 s⁻¹ | kon (biotin-labeled mouse ADM [1]): 513000 M⁻¹ s⁻¹ | Kd (biotin-labeled human ADM [2]): 0.352 nM | Response value (biotin-labeled human ADM [2]): 2.66 | koff (biotin-labeled human ADM [2]): 0.000158 s⁻¹ | kon (biotin-labeled human ADM [2]): 449000 M⁻¹ s⁻¹
B5: Ab2004.Am40 (IgG1 antibody) (antibody, V domains shown)
VH: B1 VH with S31Q, S35A
VL: B2 VL with D95P, T97S
notes: as for B2

EC50 (biotin-labeled mouse ADM [3]): 15 nM | EC50 (biotin-labeled human ADM [4]): 0.79 nM
B6: Ab2004.Am33 (Fab displayed on yeast) (Fab, V domains shown)
VH: B1 VH with A53P, Q55S
VL: B1 VL with Q27E, S31E
notes: as for B3

EC50 (biotin-labeled mouse ADM [3]): 4.43 nM | EC50 (biotin-labeled human ADM [4]): 1.06 nM
B7: Ab2004.Am34 (Fab displayed on yeast) (Fab, V domains shown)
VH: B1 VH with S31H, S35A
VL: B1 VL with A51V, N53I, E55D, T56A
notes: as for B3

EC50 (biotin-labeled mouse ADM [3]): 2.26 nM | EC50 (biotin-labeled human ADM [4]): 1.47 nM
B8: Ab2004.Am35 (Fab displayed on yeast) (Fab, V domains shown)
VH: B1 VH with S31Q, S35A
VL: B1 VL with A51V, N53I, E55D, T56A
notes: as for B3

EC50 (biotin-labeled mouse ADM [3]): 2.2 nM | EC50 (biotin-labeled human ADM [4]): 0.41 nM
B9: Ab2004.Am32 (Fab displayed on yeast) (Fab, V domains shown)
VH: B1 VH with S31Q, S35A
VL: B1 VL with S26A, Q27E, S30G
notes: as for B3
